Reference: US20100029507

Assays:
[1] = biological target: E. coli malic enzyme-kemptide fusion protein (UniProt P26616)
bovine serum albumin = bovine serum albumin (UniProt P02769)
Chain of bovine serum albumin (P02769 25-607): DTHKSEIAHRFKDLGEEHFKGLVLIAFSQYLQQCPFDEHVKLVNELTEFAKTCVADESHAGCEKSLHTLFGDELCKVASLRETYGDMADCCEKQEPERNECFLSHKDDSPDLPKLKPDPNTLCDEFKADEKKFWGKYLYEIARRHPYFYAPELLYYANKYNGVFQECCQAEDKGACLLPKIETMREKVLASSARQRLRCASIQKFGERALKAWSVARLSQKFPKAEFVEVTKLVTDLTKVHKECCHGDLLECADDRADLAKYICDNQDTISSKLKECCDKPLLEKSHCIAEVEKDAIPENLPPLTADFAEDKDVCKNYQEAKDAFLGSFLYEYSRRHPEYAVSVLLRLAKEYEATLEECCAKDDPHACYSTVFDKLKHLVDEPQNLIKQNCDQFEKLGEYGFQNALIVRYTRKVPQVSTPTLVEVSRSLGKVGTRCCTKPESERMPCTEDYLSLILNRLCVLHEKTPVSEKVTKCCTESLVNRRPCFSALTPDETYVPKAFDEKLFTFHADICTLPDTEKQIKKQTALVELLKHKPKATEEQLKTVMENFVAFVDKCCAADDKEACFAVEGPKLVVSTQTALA

Chain of E. coli malic enzyme-kemptide fusion protein (P26616 whole entry, looked up, the tested form may be a part): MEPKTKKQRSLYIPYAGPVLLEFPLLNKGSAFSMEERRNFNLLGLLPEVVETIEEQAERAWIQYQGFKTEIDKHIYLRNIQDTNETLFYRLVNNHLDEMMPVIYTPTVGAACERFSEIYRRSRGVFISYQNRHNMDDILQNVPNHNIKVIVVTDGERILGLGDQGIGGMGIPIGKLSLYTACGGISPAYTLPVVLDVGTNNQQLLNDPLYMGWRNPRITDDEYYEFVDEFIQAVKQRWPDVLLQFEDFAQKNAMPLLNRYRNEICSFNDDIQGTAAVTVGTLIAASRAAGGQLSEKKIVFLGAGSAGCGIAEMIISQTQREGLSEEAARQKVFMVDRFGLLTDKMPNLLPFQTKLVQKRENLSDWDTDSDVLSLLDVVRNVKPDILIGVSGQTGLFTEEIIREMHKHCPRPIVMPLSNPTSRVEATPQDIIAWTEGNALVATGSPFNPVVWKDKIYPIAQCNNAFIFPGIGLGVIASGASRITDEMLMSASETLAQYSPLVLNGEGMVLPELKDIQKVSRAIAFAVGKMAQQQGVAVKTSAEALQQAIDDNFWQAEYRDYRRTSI

cAMP-dependent protein kinase
phosphorylation with [gamma-32P]ATP on the biochip after different blocking solutions or none [1]: clear spots were observed not only when 1% BSA was treated but also when 1% glycine and 10% glycerol were treated
phosphorylation with [gamma-32P]ATP on the biochip, X-ray film [1]: spot signals were clearly confirmed on the malic enzyme-kemptide fusion protein or kemptide spot
phosphorylation with [gamma-32P]ATP on the biochip, X-ray film (bovine serum albumin): no signal was observed on No. 1 BSA spot selected as a negative control
phosphorylation with [gamma-32P]ATP on the biochip after different blocking solutions or none (kemptide): clear spots were observed not only when 1% BSA was treated but also when 1% glycine and 10% glycerol were treated
phosphorylation with [gamma-32P]ATP on the biochip, X-ray film (kemptide): spot signals were clearly confirmed on the malic enzyme-kemptide fusion protein or kemptide spot
phosphorylation with [gamma-32P]ATP on the biochip, X-ray film against image plate (IP) (kemptide): signals were clearly detected on IP film even with short sensitization time
